These results are taken from US7700573.

The target of the series is KOC1 (RNA-immunoprecipitation from NSCLC cells) (Homo sapiens) (UniProt O00425). Briefly: pulldown.
Chain of KOC1 (RNA-immunoprecipitation from NSCLC cells) (Homo sapiens) (O00425 whole entry): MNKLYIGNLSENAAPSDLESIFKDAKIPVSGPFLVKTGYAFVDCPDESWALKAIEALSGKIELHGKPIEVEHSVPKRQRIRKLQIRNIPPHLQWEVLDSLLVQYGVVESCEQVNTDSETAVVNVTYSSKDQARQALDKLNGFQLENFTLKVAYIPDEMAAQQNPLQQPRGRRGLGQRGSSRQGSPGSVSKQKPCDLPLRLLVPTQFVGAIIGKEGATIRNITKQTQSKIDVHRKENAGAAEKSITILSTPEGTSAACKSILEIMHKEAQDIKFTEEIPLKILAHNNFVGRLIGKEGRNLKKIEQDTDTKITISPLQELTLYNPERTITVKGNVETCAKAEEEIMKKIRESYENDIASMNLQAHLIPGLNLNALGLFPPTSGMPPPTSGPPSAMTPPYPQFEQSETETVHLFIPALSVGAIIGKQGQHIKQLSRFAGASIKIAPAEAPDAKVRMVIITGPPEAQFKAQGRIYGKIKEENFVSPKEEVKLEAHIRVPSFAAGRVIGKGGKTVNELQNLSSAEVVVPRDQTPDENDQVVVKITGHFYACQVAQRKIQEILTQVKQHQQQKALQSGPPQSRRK

For the substance ACTB mRNA (BC053988), the binding signal (fold IP/input, sum of five cell lines) (negative control) came out at 0.
Take CCT2 mRNA (AF026166): the binding signal (fold IP/input, sum of five cell lines) (RNA-IP microarray, association in cell extract) was found to be 32.3.
With GL mRNA (AJ420489), the binding signal (fold IP/input, sum of five cell lines) (RNA-IP microarray) amounted to 16.
PKP4 mRNA (AI681111): the binding signal (fold IP/input, sum of five cell lines) (RNA-IP microarray) stood at 12.6.
The same measure, in the same setting: the same measure for PSMB7 mRNA (BM837906): 16.5; for SBP2 mRNA (AF380995): 24; for SLC25A3 mRNA (NM_002635): 21.7.
Same read-out and setting: the same measure for WINS1 mRNA (AA741459): 10.9.
